Laboratory results taken from patent publication US20070059825A1.

Target: human zalpha11 receptor (full-length, on cells) (human) (UniProt Q9HBE5)
Experiment: cell-based or functional assay

Sequence of human zalpha11 Ligand-saporin immunotoxin conjugate (Q9HBE4 32-162): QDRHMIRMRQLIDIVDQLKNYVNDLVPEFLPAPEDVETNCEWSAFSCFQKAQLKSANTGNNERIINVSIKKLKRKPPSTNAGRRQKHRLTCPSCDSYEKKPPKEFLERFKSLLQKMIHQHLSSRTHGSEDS
Sequence of UniProt Q9HBE5 (Q9HBE5 20-538 limits assumed): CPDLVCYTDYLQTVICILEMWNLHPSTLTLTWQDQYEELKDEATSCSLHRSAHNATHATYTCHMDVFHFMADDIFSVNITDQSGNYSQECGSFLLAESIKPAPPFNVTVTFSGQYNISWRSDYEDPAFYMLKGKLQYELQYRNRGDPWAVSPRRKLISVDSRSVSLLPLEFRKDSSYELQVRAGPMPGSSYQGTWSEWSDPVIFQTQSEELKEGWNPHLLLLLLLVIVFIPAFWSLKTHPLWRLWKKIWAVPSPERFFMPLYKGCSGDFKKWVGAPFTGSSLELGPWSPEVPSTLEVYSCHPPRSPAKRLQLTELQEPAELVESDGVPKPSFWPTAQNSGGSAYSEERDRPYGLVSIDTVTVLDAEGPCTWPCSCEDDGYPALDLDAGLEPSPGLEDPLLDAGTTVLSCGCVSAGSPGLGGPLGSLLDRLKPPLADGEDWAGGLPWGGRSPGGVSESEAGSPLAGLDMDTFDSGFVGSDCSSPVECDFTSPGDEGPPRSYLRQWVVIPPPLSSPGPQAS

“human zalpha11 Ligand-saporin immunotoxin conjugate” gave a growth inhibition of IM-9 cells at the maximal conjugate concentration (250 ng/ml), Alamar Blue of 79% and a growth inhibition of RAMOS cells at the maximal conjugate concentration (250 ng/ml), Alamar Blue of 65%.
